This is an account of results in patent US20200199214A1 (Hoffmann-La Roche, published 2020).

Numbering of substitutions follows the chain as printed.

The target in assay [1] is T1, human IL-1 beta (PeproTech 200-01B) (human, UniProt P01584 117-269).
T1 construct: As printed it covers only the N-terminal part of the precursor, so it was not used; also called huIL-1 beta; IL1β
In words: SPR, Fab captured via anti-Fab antibody, human IL-1beta injected, 1:1 Langmuir fit. On the procedure: (§1) An anti-Fab capturing antibody (GE Healthcare 28958325) was immobilized to a Series S Sensor Chip C1 (GE Healthcare 29104990) using standard amine coupling chemistry resulting in a surface density of approximately 500 resonance units (RU). The bispecific anti-VEGF/anti-IL-1beta Fab fragment was captured to the surface with resulting capture levels of approximately 20 RU. A dilution series ranging from 0.74 to 60 nM (1:3 dilution) of either human IL-1 beta (PeproTech 200-01B) or cynomolgus IL-1 beta (Sino Biological 90010-CNAE) was injected for 90 s, dissociation was monitored for at least 600 s at a flow rate of 30 μl/min. The surface was regenerated by two consecutive injections of 10 mM Glycine pH 2.1 for 60 s each. Bulk refractive index differences were corrected by subtracting blank injections and by subtracting the response obtained from the control flow cell without captured bispecific anti-VEGF/anti-IL-1beta Fab fragment. Curve fitting was performed using the 1:1 Langmuir binding model within the Biacore evaluation software.
(§2) Binding kinetics to VEGF and IL-1beta for the candidate antibodies were assessed as described in Example 3 using the indicated bispecific anti-VEGF/anti-IL-1beta Fab fragments (amino acid sequence as illustrated in Table 3). For comparison, antigen binding kinetics of prior art anti-VEGF/anti-IL-1beta antibody 0032, a full length IgG antibody, as disclosed in WO2016/075034 are depicted.
Background: In SPR one partner is held on a chip, and binding of the other changes the refractive index at the surface.

Assay [2] deals with T2, cynomolgus IL-1 beta (Sino Biological 90010-CNAE) (cynomolgus, UniProt P79182 117-268).
T2 sequence (looked up): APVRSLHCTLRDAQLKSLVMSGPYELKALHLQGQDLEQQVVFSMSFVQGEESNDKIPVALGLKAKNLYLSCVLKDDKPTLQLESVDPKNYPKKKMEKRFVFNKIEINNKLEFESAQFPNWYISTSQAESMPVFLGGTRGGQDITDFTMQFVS
The experiment in a line: SPR, Fab captured via anti-Fab antibody, cynomolgus IL-1beta injected, 1:1 Langmuir fit. The method, then: as §1, §2

Assay [3] concerns the target T1, human IL-1 beta (PeproTech 200-01B). The experiment in a line: SPR, Fab captured via anti-Fab antibody, human IL-1beta injected, 1:1 Langmuir fit; n = 4. On the procedure:
as §1
Binding kinetics to VEGF and IL-1beta for the candidate antibodies were assessed as described in Example 3 using the indicated bispecific anti-VEGF/anti-IL-1beta Fab fragments (amino acid sequence as illustrated in Table 3). […]

Assay [4] has as its target T3, Human VEGF121-His (human, UniProt P15692-9 27-147).
T3 construct: not shown: His tag
T3 sequence (looked up): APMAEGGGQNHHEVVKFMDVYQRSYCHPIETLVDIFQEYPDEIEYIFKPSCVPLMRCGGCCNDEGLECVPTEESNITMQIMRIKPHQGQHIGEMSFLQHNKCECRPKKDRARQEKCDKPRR
In words: SPR, VEGF121-His captured via anti-His antibody, Fab injected, single cycle kinetics, 1:1 Langmuir fit. On the procedure: (§3) An anti-His capturing antibody (GE Healthcare 28995056) was immobilized to a Series S Sensor Chip C1 (GE Healthcare 29104990) using standard amine coupling chemistry resulting in a surface density of approximately 500 resonance units (RU). As running and dilution buffer, HBS-P+(10 mM HEPES, 150 mM NaCl pH 7.4, 0.05% Surfactant P20) was used. Human VEGF121-His was captured to the surface with resulting ligand densities of approximately 10 and 20 RU, respectively. A dilution series of the bispecific anti-VEGF/anti-IL-1beta Fab fragment (1.2-100 nM, 1:3 dilution) was successively injected for 90 s each, dissociation was monitored for 3600 s at a flow rate of 30 μl/min (single cycle kinetics). The surface was regenerated by injecting 10 mM Glycine pH 1.5 for 60 s. Bulk refractive index differences were corrected by subtracting blank injections and by subtracting the response obtained from the control flow cell without captured human VEGF121. Curve fitting was performed using the 1:1 Langmuir binding model within the Biacore evaluation software. To provide more robust fitting, the Multiple Rmax option was chosen for global fitting using both ligand densities.
as §2

The target of assay [5] is T1, human IL-1 beta (PeproTech 200-01B). In words: SPR, Fab captured via anti-Fab antibody, IL-1beta injected 0.74-60 nM, 1:1 Langmuir fit. The method, then:
as §1, §2

Assay [6] shares this target. In words: SPR, Fab captured via anti-Fab antibody, human IL-1beta injected, 1:1 Langmuir fit (same values as Table 1). The method, then: as §1, §2
For assay [7], the target named is T3, Human VEGF121-His. In words: SPR, VEGF121-His captured via anti-His antibody, Fab injected 1.2-100 nM, single cycle kinetics, 1:1 Langmuir fit. On the procedure: as §3, §2
Assay [8] concerns the target T3, Human VEGF121-His. In words: SPR, VEGF121-His captured via anti-His antibody, Fab injected, single cycle kinetics, 1:1 Langmuir fit (same values as Table 1). The method, then:
as §3, §2

Assay [9] has as its target T4, human VEGF121 (human, UniProt P15692-9 27-147).
T4 construct: No tag is stated for these preparations; Kept apart from VEGF121-His; also called HuVEGF121
T4 sequence (looked up): T3 sequence (looked up)
The experiment in a line: competition ELISA: Fab preincubated with VEGF121, free VEGF121 bound to coated rhVEGFR-1-Fc detected; sheet title 'Competition ELISA VEGFR1-Fc, 8 pM VEGF121'. On the procedure:
(§4) 96-well-Plates (Maxisorp Nunc-Immoplates) were coated with 50 μL/well rhVEGFR-1-Fc (R&D #321-FL-050) at a final concentration of 1 μg/ml in 200 mM NaHC0₃, pH 9.4 for 1 hour at room temperature.
(§5) Meanwhile, antibody Fab fragments of different concentrations were preincubated with VEGF for form an antibody Fab-VEGF premix as follows: A dilution series of antibody Fab fragment was prepared by adding 280 μl of a solution of antibody Fab fragments (409.6 nM antibody in PBST-1% BSA) into the wells of the first column of a round bottom 96-well PS plate. The individual wells of columns 2-12 of the same plate were filled with 140 μl PBST-1% BSA. Subsequently, 1:2 dilutions were performed by transferring 140 μl of the antibody solution into the next column, thorough mixing and proceed with transferring 140 μl of this diluted antibody solution to the next column. This is repeated until column 11. Excess of 140 μl were discarded so that all wells comprise 140 μl. Column 12 served as the control (blank). […] 50 μl of the dilution series of the respective antibody Fab fragment were added to the VEGF121, or VEGF165, respectively; mixed thoroughly and incubated for 1.5 hours at room temperature.
(§6) The rhVEGFR-1-Fc coated plates were washed two times with PBST and blocked for 45 min with 200 μl of 2% MPBST. After washing off the MPBST solution twice with PBST, 50 μl of the antibody Fab-VEGF premix were added to the plate and incubated for 1.5 hours at room temperature. Subsequently, the plates were washed twice with PBST. Then, 50 μl of a solution comprising biotinylated anti-VEGF antibody (R&D, BAF293; 1:2000 dilution in PBST) and SA-HRP (KPL, 14-30-00; 1:2000 dilution in PBST) was added and incubated for 30 min at room temperature. After 6× washing with PBST, 50 μl of TMB substrate solution (two-component HRP substrate (KPL, 34021); used at room temperature) was added and incubated for 30 min at room temperature. 50 μl of 1N H₂SO₄ was added and absorbance was read at 450 nm.
Background: An ELISA detects its analyte on a solid surface through an enzyme-linked reagent.

For assay [10], the target named is T5, VEGF165 (UniProt P15692-4 27-191).
T5 construct: also called VEGF165 (Humanzyme, HZ-1153)
The experiment in a line: competition ELISA: Fab preincubated with VEGF165, free VEGF165 bound to coated rhVEGFR-1-Fc detected; sheet title 'Competition ELISA VEGFR1-Fc, 8 pM VEGF165'. On the procedure:
as §4, §5, §6

B1: bispecific anti-VEGF/anti-IL-1beta Fab fragment 1HVL5.15 (Fab, V domains shown)
VH: DETLVESGGGLVKPGGSLRLSCAAEGMVFKWNDMSWVRQAPGKGLEWVGSISKKGDHKYLNTKFIGRFTISRDNEKDTLYLQMNSLRAEDTAVYYCAKDVGFFDIWGQGTLVTVSS
VL: AIYMHQEPSSLSASVGDRVTITCHGSYWLSSLMAWYQQKPGKAPKLLIYDAKYKHLGVPSRFSGSGSHEDYTLTISSLQPEDFATYYCQQYRYHPYTFGHGTKVEIKR
A word on the koff: it is the rate constant with which the complex falls apart. The kon is the rate constant with which the complex forms. The low end stands for slower complex formation, the high end for faster complex formation. One may read the Kd as the concentration at which binding is half-saturated. Read a low Kd as a tighter complex. As a reminder, the t½ is how long it takes for the measured level to halve. In assay [1], B1 returned a koff of 0.000107 s⁻¹ and a kon of 1.66e+06 M⁻¹ s⁻¹. In assay [2], this molecule came in with a Kd of 0.045 nM, a koff of 0.000118 s⁻¹, a kon of 2.6e+06 M⁻¹ s⁻¹ and a t½ of 1.63 h. In addition, in [3], binding was put at a Kd of 0.059 nM and the “t 1/2” value was 1.82 h. In assay [4], this molecule gave a Kd of 0.01 nM, a koff of 1.47e-05 s⁻¹, an on-rate (kon) of 1.53e+06 M⁻¹ s⁻¹ and a t½ of 13.2 h.

B2: bispecific anti-VEGF/anti-IL-1beta Fab fragment 1HVL2.3 (Fab, V domains shown)
VH: EQLVESGGGLVKPGGSLRLSCAASGMVFSWNAMSWVRQAPGKGLEWVGSISPKGDHKYLNTKFIGRFTISRDNSKNTLYLQMNSLRAEDTAVYYCAKDIGFFDVWGQGTLVTVSS
VL: B1 VL with S31N, L32Y, M33L, K52S, K54R, H55I, L56I
notes: First expressed in E. coli TG1, later in HEK293
For B2, the Kd was found to be 4.57 nM in assay [5]; 5.79 nM in assay [2]; 4.57 nM in assay [6]; 0.008 nM in assay [7]; 0.008 nM in [8]. For the same molecule, the koff worked out at 0.0256 s⁻¹ in assay [5]; 0.0182 s⁻¹ in assay [2]; 0.0256 s⁻¹ in assay [6]; 1.45e-05 s⁻¹ in assay [7]; 1.45e-05 s⁻¹ in assay [8]. In addition, the kon in [5] is 5.61e+06 M⁻¹ s⁻¹; in assay [2] it was 3.14e+06 M⁻¹ s⁻¹; in assay [6] it was 5.61e+06 M⁻¹ s⁻¹; in assay [7], 1.75e+06 M⁻¹ s⁻¹; in [8], 1.75e+06 M⁻¹ s⁻¹. For the same molecule, the t 1/2 turned out to be 30 s in [5], 30 s in [6] and 13.3 h in assay [7]. Also, the figures for the t½ in assay [2] and in [8] were 0.01 h and 13.3 h, respectively. The “IC50 (read off the curve)” value in assay [9] was around 0.08 nM; in assay [10], around 0.2 nM.

B3: bispecific anti-VEGF/anti-IL-1beta Fab fragment 1HVL12.85 (Fab, V domains shown)
VH: B1 VH with T3Q
VL: B1 VL with M33V, G66K, S67E, H68D, E69Q, D70E, Y71F
Take B3: in assay [1], the Kd came out at 0.028 nM, the koff turned out to be 0.000135 s⁻¹, the kon is 4.76e+06 M⁻¹ s⁻¹ and the “t 1/2” value was determined as 1.43 h. In assay [2], this molecule displayed a Kd of 0.02 nM, a koff of 6.54e-05 s⁻¹, a kon of 3.34e+06 M⁻¹ s⁻¹ and a t½ of 2.95 h. In assay [4], this molecule gave a Kd of 0.006 nM, a koff of 1.51e-05 s⁻¹, a kon of 2.5e+06 M⁻¹ s⁻¹ and a t½ of 12.7 h. The “IC50 (read off the curve)” value in [9] was around 0.04 nM. The “IC50 (read off the curve)” value in [10] is around 0.09 nM.
